Measured values reported in US20230302148A1, “PHARMACEUTICAL COMPOSITION COMPRISING LONG-ACTING CONJUGATE OF TRIPLE GLUCAGON/GLP-1/GIP RECEPTOR AGONIST” (HANMI PHARM. CO., LTD., priority 2020, published 2023).
Bridges are numbered along the chain shown (N, C = ends). Where no end group is shown, it is not given here. [ ]: non-standard residue; d: D form. The star is where a group is joined. Acetyl(2-(4-imidazolyl)) = O=C(Cc1c[nH]cn1)*; Aib = CC(C)(N)C(=O)O

T1: human GIP receptor (human, UniProt P48546 22-466)
T1 sequence (looked up): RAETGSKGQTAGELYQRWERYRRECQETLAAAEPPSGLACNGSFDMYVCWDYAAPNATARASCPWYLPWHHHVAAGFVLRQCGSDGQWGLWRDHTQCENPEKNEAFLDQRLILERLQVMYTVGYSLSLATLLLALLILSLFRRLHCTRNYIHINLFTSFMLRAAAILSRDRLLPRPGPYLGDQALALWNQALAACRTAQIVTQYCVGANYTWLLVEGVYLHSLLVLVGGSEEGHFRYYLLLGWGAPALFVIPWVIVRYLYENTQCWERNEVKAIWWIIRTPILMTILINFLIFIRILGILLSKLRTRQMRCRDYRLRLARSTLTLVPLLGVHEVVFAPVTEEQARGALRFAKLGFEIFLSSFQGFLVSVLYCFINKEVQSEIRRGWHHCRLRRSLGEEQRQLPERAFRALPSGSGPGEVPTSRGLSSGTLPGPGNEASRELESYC

B1: triple agonist of SEQ ID NO: 9 (peptide)
peptide: H[Aib]QGTFTSDVSKYLDGQAAQEFVAWLLAGC
B2: triple agonist of SEQ ID NO: 73 (peptide)
peptide: [Acetyl(2-(4-imidazolyl))][Aib]QGTFTSDYSKYLDECRAKEFVQWLLDHHPSSGQPPPS
modifications: bridge 16-20; not fully specified
B3: triple agonist of SEQ ID NO: 67 (peptide)
peptide: Y[Aib]QGTFTSDYSKYLDECAAKDFVQWLLDHHPSSGQPPPS
modifications: bridge 16-20
B4: triple agonist of SEQ ID NO: 89 (peptide)
peptide: {Acetyl(2-(4-imidazolyl))}-[Aib]QGTFTSDYSKYLDEKRQKEFVQWLLDTKC
modifications: bridge 15-19
B5: triple agonist of SEQ ID NO: 71 (peptide)
peptide: Y[Aib]QGTFTSDYSKYLDERACKDFVQWLLDHHPSSGQPPPS
modifications: bridge 16-20
B6: triple agonist of SEQ ID NO: 87 (peptide)
peptide: {Acetyl(2-(4-imidazolyl))}-[Aib]QGTFTSDYSIAMDEIHQKDFVNWLLNTC
modifications: bridge 15-19
B7: triple agonist of SEQ ID NO: 82 (peptide)
peptide: {Acetyl(2-(4-imidazolyl))}-[Aib]QGTFTSDYSKYLDEKRQKEFVQWLLDTC
modifications: bridge 15-19
B8: triple agonist of SEQ ID NO: 78 (peptide)
peptide: H[Aib]QGTFTSDYSKYLDEKRQKEFVQWLLDTKC
modifications: bridge 16-20
B9: triple agonist of SEQ ID NO: 8 (peptide)
peptide: H[Aib]QGTFTSDVSKYLDGQAAQEFVAWLLKGC
B10: triple agonist of SEQ ID NO: 85 (peptide)
peptide: {Acetyl(2-(4-imidazolyl))}-[Aib]QGTFTSDYSIAMDEIHQKDFVNWLLAQC
modifications: bridge 15-19
B11: triple agonist of SEQ ID NO: 75 (peptide)
peptide: Y[Aib]QGTFTSDYSKYLDEKAAKEFVQWLLDHHPSSGQPPPSC
modifications: bridge 16-20
B12: triple agonist of SEQ ID NO: 88 (peptide)
peptide: {Acetyl(2-(4-imidazolyl))}-[Aib]QGTFTSDYSKYLDEKRQKEFVQWLLNTKC
modifications: bridge 15-19

biological target: T1, human GIP receptor; assay: cell-based or functional assay

Binder | In vitro activity relative to native peptide (%) vs. GIP
B1 | < 0.1%
B2 | 3%
B3 | 39.8%
B4 | < 0.1%
B5 | 94.7%
B6 | < 0.1%
B7 | < 0.1%
B8 | 0.12%
B9 | < 0.1%
B10 | 0.3%
B11 | 18%
B12 | < 0.1%

biological target: human GLP-1 receptor (human, UniProt P43220 24-463); assay: cell-based or functional assay

Binder | In vitro activity relative to native peptide (%) vs. GLP-1
B1 | 32.1%
B2 | 22.6%
B3 | 28.5%
B4 | 7.1%
B5 | 90.1%
B6 | 0.9%
B7 | 9.5%
B8 | 51%
B9 | 14.2%
B10 | 4.3%
B11 | 35.1%
B12 | 9.6%

biological target: human GCG receptor (human, UniProt P47871 26-477); assay: cell-based or functional assay
Sequence (P47871 26-477): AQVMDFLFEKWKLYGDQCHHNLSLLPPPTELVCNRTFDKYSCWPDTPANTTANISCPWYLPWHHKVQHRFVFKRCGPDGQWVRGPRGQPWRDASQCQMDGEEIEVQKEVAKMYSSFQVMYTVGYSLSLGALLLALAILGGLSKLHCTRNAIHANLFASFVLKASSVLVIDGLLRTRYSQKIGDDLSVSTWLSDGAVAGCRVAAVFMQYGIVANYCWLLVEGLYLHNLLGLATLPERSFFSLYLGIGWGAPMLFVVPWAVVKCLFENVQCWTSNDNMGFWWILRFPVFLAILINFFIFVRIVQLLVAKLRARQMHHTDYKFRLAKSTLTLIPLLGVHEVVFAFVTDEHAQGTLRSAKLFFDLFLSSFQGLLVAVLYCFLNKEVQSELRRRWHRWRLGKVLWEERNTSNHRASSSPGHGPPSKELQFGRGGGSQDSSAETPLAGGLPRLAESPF

Binder | In vitro activity relative to native peptide (%) vs. Glucagon
B1 | 0.13%
B2 | 5.4%
B3 | 46.2%
B4 | 0.7%
B5 | 12.7%
B6 | < 0.1%
B7 | 1.1%
B8 | 14%
B9 | 0.1%
B10 | < 0.1%
B11 | 8.5%
B12 | 0.3%
